Like-named read-outs stand apart in the source and are kept apart here. Non-standard residues stand in square brackets, D forms with d. Residues, ends and D or L forms follow the SMILES beside them. Primed or numbered codes have the meaning given here. No end group written: not given here. *: point of attachment. FITC′ = fluorescein isothiocyanate tag added on resin (method C); FITC = O=C1OC2(c3ccc(O)cc3Oc3cc(O)ccc32)c2ccc(NC(=S)*)cc21; pT = C[C@@H](OP(=O)(O)O)[C@H](N)C(=O)O; pS = N[C@@H](COP(=O)(O)O)C(=O)O

For one assay, the target named is T1, 14-3-3ζ (Homo sapiens, UniProt P63104).
T1 construct: Full-length expression and purification of 14-3-3; made in house; host or cells: E. coli BL21 (DE3)STAR
T1 sequence (P63104 1-245): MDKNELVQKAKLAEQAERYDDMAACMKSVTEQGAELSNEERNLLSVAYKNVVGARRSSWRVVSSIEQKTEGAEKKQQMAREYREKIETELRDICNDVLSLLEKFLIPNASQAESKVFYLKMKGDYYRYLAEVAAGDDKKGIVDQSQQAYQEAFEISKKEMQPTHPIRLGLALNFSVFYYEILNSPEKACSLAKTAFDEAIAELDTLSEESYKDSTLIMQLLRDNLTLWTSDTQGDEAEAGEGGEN
The assay can be described thus: FP assay with GR phosphorylated peptides and 14-3-3ζ. It is filed as binding. The procedure, abridged:
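Fluorescence polarization (ex 485/em 520 nm) was read in triplicate after 30-min RT incubation. Binding data were fitted to a standard Hill equation and expressed in mP units. The dynamic range (ΔmP) is the difference between bound and free peptide signals.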

For assay [1], the target named is T2, human 14-3-3ζ, full length, 6His-Linker-h14-3-3 (human, UniProt P63104 1-245).
T2 chain: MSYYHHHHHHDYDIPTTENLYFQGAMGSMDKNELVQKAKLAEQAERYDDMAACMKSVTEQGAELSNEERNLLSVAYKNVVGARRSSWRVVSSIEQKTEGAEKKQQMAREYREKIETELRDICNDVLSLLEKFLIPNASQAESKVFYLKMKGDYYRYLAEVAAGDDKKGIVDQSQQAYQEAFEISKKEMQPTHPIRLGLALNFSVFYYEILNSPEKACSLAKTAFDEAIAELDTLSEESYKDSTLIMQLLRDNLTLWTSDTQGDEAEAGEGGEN
The assay can be described thus: FP.

Assay [2] addresses T3, human 14-3-3σ, full length, 6His-Linker-h14-3-3 (human, UniProt P31947 1-248).
T3 construct: 14-3-3 protein sigma, human, cloned in pProEx Htb; also called σ isoform of human 14-3-3; source: E. coli BL21 (DE3)STAR, purified (Ni-NTA, SEC); not shown: His6 with linker [residues removed], N-terminal, kept
T3 sequence (looked up): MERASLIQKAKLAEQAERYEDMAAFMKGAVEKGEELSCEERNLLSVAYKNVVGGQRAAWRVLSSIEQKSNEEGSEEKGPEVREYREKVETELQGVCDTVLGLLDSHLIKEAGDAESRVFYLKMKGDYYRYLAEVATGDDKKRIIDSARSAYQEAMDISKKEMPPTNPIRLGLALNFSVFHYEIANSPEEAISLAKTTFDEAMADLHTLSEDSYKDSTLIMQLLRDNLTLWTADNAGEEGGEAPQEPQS
As to the kind of experiment: fluorescence polarisation; FITC-labelled peptide at 60 nM (monophosphorylated) or 10 nM (doubly phosphorylated) titrated with 14-3-3ζ or 14-3-3σ in dilution series from 300 μM or 150 μM; 30 min at RT; 384-well plate; Hill fit; triplicates. Conditions: both partners purified. A general note: Fluorescence polarisation rises when a labelled molecule tumbles more slowly, as on binding a larger partner.

The target of assay [3] is T2, human 14-3-3ζ, full length, …. As to the kind of experiment: SPR. A general note: In SPR one partner is held on a chip, and binding of the other changes the refractive index at the surface.
Setting [4] is: FITC-labeled peptide 60 nM (monophosphorylated) or 10 nM (doubly phosphorylated) titrated with 14-3-3ζ, 30 min RT, Hill fit, triplicates, read-out: Kd with 14-3-3ζ by FP.

For the molecule `CC(C)C[C@H](N)C(=O)N[C@@H](CCC(=O)O)C(=O)N[C@@H](Cc1ccccc1)C(=O)N[C@@H](CO)C(=O)N[C@@H](CO)C(=O)NCC(=O)N[C@@H](COP(=O)(O)O)C(=O)N1CCC[C@H]1C(=O)NCC(=O)N[C@@H](CCCCN)C(=O)N[C@@H](CCC(=O)O)C(=O)N[C@H](C(=O)N[C@@H](CC(N)=O)C(=O)O)[C@@H](C)O` [GR_pS203] (H-LEFSSG[pS]PGKETN-OH; N-terminus assumed), the Kd at 14-3-3ζ (setting [4]) was greater than 150000 nM.
The same measure, in the same setting: in the case of `CC(C)C[C@H](NC(=O)[C@H](CC(=O)O)NC(=O)[C@H](CO)NC(=O)[C@H](CCCNC(=N)N)NC(=O)[C@H](Cc1c[nH]c2ccccc12)NC(=O)[C@@H]1CCCN1C(=O)[C@H](COP(=O)(O)O)NC(=O)[C@H](CCC(=O)O)NC(=O)[C@H](CC(N)=O)NC(=O)[C@@H](NC(=O)[C@H](CCC(=O)O)NC(=O)[C@H](CCCCN)NC(=O)CN)[C@@H](C)O)C(=O)O` [GR_pS211] (H-GKETNE[pS]PWRSDL-OH; N-terminus assumed) it was greater than 150000 nM; in that of `CC(C)C[C@H](NC(=O)[C@H](CS)NC(=O)[C@H](CC(N)=O)NC(=O)[C@H](CCC(=O)O)NC(=O)[C@@H](N)CC(=O)O)C(=O)N[C@@H](CC(C)C)C(=O)N[C@@H](COP(=O)(O)O)C(=O)N1CCC[C@H]1C(=O)N[C@@H](CC(C)C)C(=O)N[C@@H](C)C(=O)NCC(=O)N[C@@H](CCC(=O)O)C(=O)N[C@@H](CC(=O)O)C(=O)O` [GR_pS226] (H-DENCLL[pS]PLAGED-OH; N-terminus assumed), greater than 150000 nM; in that of `CC(C)C[C@H](NC(=O)[C@H](CC(C)C)NC(=O)[C@H](Cc1ccccc1)NC(=O)[C@H](COP(=O)(O)O)NC(=O)[C@H](CC(=O)O)NC(=O)[C@H](CC(=O)O)NC(=O)[C@H](CCC(=O)O)NC(=O)CNC(=O)[C@H](C)NC(=O)[C@@H](N)CC(C)C)C(=O)N[C@@H](CCC(=O)O)C(=O)NCC(=O)N[C@@H](CC(N)=O)C(=O)O` [GR_pS234] (H-LAGEDD[pS]FLLEGN-OH; N-terminus assumed), greater than 150000 nM.
For the molecule `CC(C)C[C@H](NC(=O)[C@@H](NC(=O)[C@@H](NC(=O)[C@H](CC(N)=O)NC(=O)[C@H](CO)NC(=O)[C@@H]1CCCN1C(=O)[C@H](COP(=O)(O)O)NC(=O)[C@H](CO)NC(=O)[C@H](CC(C)C)NC(=O)[C@@H](NC(=O)[C@H](CC(C)C)NC(=O)[C@H](CC(=O)O)NC(=O)CN)C(C)C)C(C)C)[C@@H](C)O)C(=O)O` [GR_pS267] (H-GDLVLS[pS]PSNVTL-OH; N-terminus assumed), at 14-3-3ζ (setting [4]), the Kd is greater than 150000 nM.
Same read-out and setting: in the case of `CSCC[C@H](N)C(=O)N[C@@H](CCCNC(=N)N)C(=O)N1CCC[C@H]1C(=O)N[C@@H](CC(=O)O)C(=O)N[C@H](C(=O)N[C@@H](CO)C(=O)N[C@@H](COP(=O)(O)O)C(=O)N1CCC[C@H]1C(=O)N1CCC[C@H]1C(=O)N[C@@H](CO)C(=O)N[C@@H](CO)C(=O)N[C@@H](CO)C(=O)N[C@@H](CO)C(=O)O)C(C)C` [GR_pS404] (H-MRPDVS[pS]PPSSSS-OH; N-terminus assumed) it was greater than 150000 nM.
Regarding `CC[C@H](C)[C@H](NC(=O)[C@@H](NC(=O)[C@@H](N)CCCCN)[C@@H](C)O)C(=O)N[C@H](C(=O)N1CCC[C@H]1C(=O)N[C@@H](C)C(=O)N[C@@H](COP(=O)(O)O)C(=O)N[C@@H](CC(C)C)C(=O)N1CCC[C@H]1C(=O)N[C@@H](CCC(N)=O)C(=O)N[C@@H](CC(C)C)C(=O)N[C@H](C(=O)N1CCC[C@H]1C(=O)NCC(=O)NCC(=O)NCC(=O)NCC(=O)NCC(=O)N[C@@H](CCCNC(=N)N)C(=O)N[C@@H](CO)C(=O)N[C@@H](Cc1ccc(O)cc1)C(=O)N[C@@H](CCCNC(=N)N)C(=O)N[C@@H](CCC(N)=O)C(=O)N[C@@H](CO)C(=O)N[C@@H](COP(=O)(O)O)C(=O)N[C@@H](C)C(=O)N[C@@H](CC(N)=O)C(=O)N[C@@H](CC(C)C)C(=O)N[C@@H](CC(C)C)C(=O)N[C@@H](CS)C(=O)N[C@@H](Cc1ccccc1)C(=O)O)[C@@H](C)O)C(C)C` [GR_pS524-pS617] (H-KTIVPA[pS]LPQLTPGGGGGRSYRQS[pS]ANLLCF-OH), the Kd on 14-3-3ζ (FP, doubly phosphorylated 31-mer peptides, triplicates, read-out: Kd with 14-3-3ζ (values in nM)) was determined as 140 nM.
Turning to `CC(C)C[C@H](NC(=O)[C@H](CO)NC(=O)[C@H](CCC(=O)O)NC(=O)[C@H](CCCCN)NC(=O)[C@H](CO)NC(=O)[C@@H](N)CC(=O)O)C(=O)N[C@H](C(=O)N1CCC[C@H]1C(=O)NCC(=O)N[C@@H](CCCNC(=N)N)C(=O)N[C@@H](CCC(=O)O)C(=O)N[C@@H](CCC(=O)O)C(=O)N[C@@H](CC(N)=O)C(=O)O)[C@@H](C)OP(=O)(O)O` [GR_pT8] (H-DSKESL[pT]PGREEN-OH; N-terminus assumed), the Kd at 14-3-3ζ (setting [4]) is greater than 150000 nM.
As for `CC[C@H](C)[C@H](NC(=O)[C@@H](NC(=O)[C@@H](N)CCCCN)[C@@H](C)O)C(=O)N[C@H](C(=O)N1CCC[C@H]1C(=O)N[C@@H](C)C(=O)N[C@H](C(=O)N[C@@H](CC(C)C)C(=O)N1CCC[C@H]1C(=O)N[C@@H](CCC(N)=O)C(=O)N[C@@H](CC(C)C)C(=O)N[C@H](C(=O)N1CCC[C@H]1C(=O)NCC(=O)NCC(=O)NCC(=O)NCC(=O)NCC(=O)N[C@@H](CCCNC(=N)N)C(=O)N[C@@H](CO)C(=O)N[C@@H](Cc1ccc(O)cc1)C(=O)N[C@@H](CCCNC(=N)N)C(=O)N[C@@H](CCC(N)=O)C(=O)N[C@@H](CO)C(=O)N[C@@H](C)C(=O)N[C@@H](C)C(=O)N[C@@H](CC(N)=O)C(=O)N[C@@H](CC(C)C)C(=O)N[C@@H](CC(C)C)C(=O)N[C@@H](CS)C(=O)N[C@@H](Cc1ccccc1)C(=O)O)[C@@H](C)O)[C@@H](C)OP(=O)(O)O)C(C)C` [GR_pT524-S617A] (H-KTIVPA[pT]LPQLTPGGGGGRSYRQSAANLLCF-OH), on 14-3-3ζ (read-out: PKd with 14-3-3ζ (converted)), the Kd was 1260 nM.
In the case of `CC[C@H](C)[C@H](NC(=O)[C@H](CCCNC(=N)N)NC(=O)[C@H](Cc1c[nH]c2ccccc12)NC(=O)[C@@H](N)[C@@H](C)O)C(=O)N[C@@H](CCSC)C(=O)N[C@H](C(=O)N[C@H](C(=O)N[C@@H](CC(C)C)C(=O)N[C@@H](CC(N)=O)C(=O)N[C@@H](CCSC)C(=O)N[C@@H](CC(C)C)C(=O)NCC(=O)NCC(=O)O)[C@@H](C)OP(=O)(O)O)[C@@H](C)O` [GR_pT562], the Kd on 14-3-3ζ (method not given, read-out: Kd with 14-3-3ζ) was determined as 200000 nM.

B1: GR pT635, FITC-labelled 13-mer phosphopeptide (peptide)
peptide: {FITC}-INEQRM[pT]LPCMYD
modifications: also: phosphothreonine at T635, place in chain not given here
B1: the Kd in assay [1] is 55 µM.

B2: GR_pS617, FITC-labelled 13-mer phosphopeptide (peptide, UniProt P04150 611-623, looked up)
peptide: {FITC′}-RSYRQS[pS]ANLLCF
modifications: also: phosphoserine at 617 (S6 or S7)
notes: glucocorticoid receptor (GR), human; 13-mer centred on S617; source: synthetic peptide
In the case of B2, the binding result in assay [2] is reported as “binds”. The same molecule came in with a Kd in assay [1] of 25 µM.

B3: GR_pT524, FITC-labelled 13-mer phosphopeptide (peptide)
peptide: {FITC}-KTIVPATLPQLTP
modifications: also: phosphothreonine at T524, place in chain not given here
In turn, B3 gave a Kd in assay [1] of 38 µM.

B4: GR_pT524, FITC-labelled 13-mer phosphopeptide (peptide, UniProt P04150 518-530, looked up)
peptide: {FITC′}-KTIVPA[pT]LPQLTP
modifications: also: phosphothreonine at 524 (T2, T7 or T12)
notes: glucocorticoid receptor (GR), human; 13-mer centred on T524; source: synthetic peptide
Take B4: the binding result in assay [2] is given as “binds”.

B5: GR_pS134, FITC-labelled 13-mer phosphopeptide (peptide, UniProt P04150 128-140, looked up)
peptide: {FITC′}-NLNRST[pS]VPENPK
modifications: also: phosphoserine at 134 (S5 or S7)
notes: glucocorticoid receptor (GR), human; 13-mer centred on S134; also called 13-mer peptide centered on GR S134; source: synthetic peptide
B5 had a Kd in assay [2] of 110 µM.

B6: GR pT561, FITC-labelled 13-mer phosphopeptide (peptide, UniProt P04150 555-567, looked up)
peptide: {FITC}-STWRIM[pT]TLNMLG
notes: glucocorticoid receptor (GR), human; 13-mer centred on T561; source: synthetic peptide
With B6, in assay [2], the binding result was “binds”.

B7: GR pS83, FITC-labelled 13-mer phosphopeptide (peptide, UniProt P04150 77-89, looked up)
peptide: {FITC}-DLSKAV[pS]LSMGLY
notes: glucocorticoid receptor (GR), human; 13-mer centred on S83; source: synthetic peptide
Take B7: in assay [2], the binding result is on record as “binds”. The molecule also registered a Kd in assay [1] of 72 µM.

B8: GR pT635, FITC-labelled 13-mer phosphopeptide (peptide, UniProt P04150 629-641, looked up)
peptide: {FITC}-INEQRM[pT]LPCMYD
notes: glucocorticoid receptor (GR), human; 13-mer centred on T635; source: synthetic peptide
Take B8: the binding result in assay [2] is recorded as “binds”.

B9: GR_pS617, 13-mer phosphopeptide used for SPR and crystallography (peptide)
peptide: RSYRQS[pS]ANLLCF
modifications: not fully specified (N-terminus)
As for B9, in assay [3], the Kd was found to be 27 µM.
